Experimental data from paper PMC10384113, “Structural and Functional Characterization of Drosophila melanogaster α-Amylase” (Molecules, 2023).

How the values were obtained:
[1] = molecular target: Drosophila melanogaster α-amylase (Drosophila melanogaster) (UniProt P08144)
[2] = molecular target: T1, DMA (Drosophila melanogaster α-amylase) (Drosophila melanogaster, UniProt P08144); experiment: residual activity on starch after inhibitor preincubation; assay type: biochemical; settings: native DMA, Pichia-produced; inhibitor 1-50 µM, 20 mM HEPES pH 7.5, 20 mM NaCl, 1 mM CaCl2, 25 °C
T1 construct: gene Amy-p; mature enzyme of 476 residues in crystal; recombinant, amy-p in pET22b, E. coli BL21 (kinetics, crystals); glycogen-purified; no tag mentioned
T1 sequence (P08144 with tags, fused parts or gaps): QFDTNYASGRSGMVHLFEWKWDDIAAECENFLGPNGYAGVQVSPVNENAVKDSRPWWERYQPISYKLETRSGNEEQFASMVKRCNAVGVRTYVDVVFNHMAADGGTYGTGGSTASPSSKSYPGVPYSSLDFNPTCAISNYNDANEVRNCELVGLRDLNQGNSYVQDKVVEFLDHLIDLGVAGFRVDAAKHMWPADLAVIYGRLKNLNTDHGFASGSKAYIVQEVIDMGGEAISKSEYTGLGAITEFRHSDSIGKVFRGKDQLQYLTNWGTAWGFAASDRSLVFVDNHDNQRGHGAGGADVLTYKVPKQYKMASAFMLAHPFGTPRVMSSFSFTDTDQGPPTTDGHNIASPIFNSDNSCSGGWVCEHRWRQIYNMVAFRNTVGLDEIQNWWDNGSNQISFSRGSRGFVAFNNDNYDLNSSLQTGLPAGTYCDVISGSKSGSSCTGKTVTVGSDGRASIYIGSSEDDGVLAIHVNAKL

Drosophila melanogaster α-amylase (Drosophila melanogaster), sequence (P08144 other isoform, or with tags, fused parts or gaps): as the sequence (P08144 with tags, fused parts or gaps) above

With “α-AI, α-amylase inhibitor from seeds of the common bean Phaseolus vulgaris (natural protein)” as the compound, how does the residual α-amylase activity of DMA after 20 min incubation with the inhibitor (1 to 50 µM) at 25 °C, pH 7.5; value at the highest concentration (50 μM) of α-AI [1] read?
The residual α-amylase activity of DMA after 20 min incubation with the inhibitor (1 to 50 µM) at 25 °C, pH 7.5; value at the highest concentration (50 μM) of α-AI was 38%.

For “WI-1 (tetrameric form), wheat α-amylase inhibitor from Triticum aestivum seeds (complex)”, which residual α-amylase activity of DMA after 20 min incubation with the inhibitor (1 to 50 µM) at 25 °C, pH 7.5; value at 10 μM WI-1 [1] is on record?
The residual α-amylase activity of DMA after 20 min incubation with the inhibitor (1 to 50 µM) at 25 °C, pH 7.5; value at 10 μM WI-1 was 6%.

For “WI-3 (monomeric form), wheat α-amylase inhibitor from Triticum aestivum seeds (natural protein)”, which residual α-amylase activity of DMA after 20 min incubation with the inhibitor (1 to 50 µM) at 25 °C, pH 7.5; value at 10 μM WI-3 [1] is on record?
The residual α-amylase activity of DMA after 20 min incubation with the inhibitor (1 to 50 µM) at 25 °C, pH 7.5; value at 10 μM WI-3 was 0.8%.

How did the “residual activity (%)” value [2] turn out when `C[C@H]1O[C@H](O[C@H]2[C@H](O)[C@@H](O)[C@@H](O[C@H]3[C@H](O)[C@@H](O)C(O)O[C@@H]3CO)O[C@@H]2CO)[C@H](O)[C@@H](O)[C@@H]1N[C@H]1C=C(CO)[C@@H](O)[C@H](O)[C@H]1O` (stereo partly shown) [acarbose] was run?
The value was “Residual activity of (a) native DMA after treatment with proteinaceous inhibitors and acarbose”.
